Values quoted from earlier work in paper PMC3750086.

Assays:
CD28 (Homo sapiens) = CD28 (Homo sapiens) (UniProt P10747)
PDL1 (Homo sapiens) = PDL1 (Homo sapiens) (UniProt Q9NZQ7)
UniProt Q9NZQ7, sequence (Q9NZQ7 19-238): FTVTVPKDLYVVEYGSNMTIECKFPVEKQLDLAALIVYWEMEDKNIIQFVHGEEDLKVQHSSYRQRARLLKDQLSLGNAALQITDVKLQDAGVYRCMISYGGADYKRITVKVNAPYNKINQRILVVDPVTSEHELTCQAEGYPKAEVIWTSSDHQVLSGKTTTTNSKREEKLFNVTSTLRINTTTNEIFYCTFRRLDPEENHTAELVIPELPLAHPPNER

- Kd (CD28 (Homo sapiens)): 4 µM
- Kd (PDL1 (Homo sapiens)): 1.4 µM
Substance: CD80 (from UniProt P33681)
